Experimental data reported in paper PMC12221368, “Long AKAP18 isoforms anchor ubiquitin specific proteinases and coordinate calcium reuptake at the sarcoplasmic reticulum” (The Journal of Biological Chemistry, 2025).

Tests used:
[1] = target: GFP-AKAP18γ (UniProt Q9P0M2)
[2] = target: GFP-AKAP18δ (UniProt Q6JP77 1-353); test: cell-based or functional assay
GFP-AKAP18δ, sequence (Q6JP77 whole entry, stated change not applied): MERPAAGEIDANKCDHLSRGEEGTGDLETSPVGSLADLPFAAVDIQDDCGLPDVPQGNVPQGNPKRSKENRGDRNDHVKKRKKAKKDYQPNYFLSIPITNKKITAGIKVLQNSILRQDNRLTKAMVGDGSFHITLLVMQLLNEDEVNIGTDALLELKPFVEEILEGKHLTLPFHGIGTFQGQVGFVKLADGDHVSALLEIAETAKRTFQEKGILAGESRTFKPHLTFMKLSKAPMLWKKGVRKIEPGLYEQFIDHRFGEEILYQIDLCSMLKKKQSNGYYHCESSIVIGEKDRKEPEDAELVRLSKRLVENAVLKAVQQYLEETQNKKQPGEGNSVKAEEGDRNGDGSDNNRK

GFP-AKAP18γ, sequence (Q9P0M2 whole entry): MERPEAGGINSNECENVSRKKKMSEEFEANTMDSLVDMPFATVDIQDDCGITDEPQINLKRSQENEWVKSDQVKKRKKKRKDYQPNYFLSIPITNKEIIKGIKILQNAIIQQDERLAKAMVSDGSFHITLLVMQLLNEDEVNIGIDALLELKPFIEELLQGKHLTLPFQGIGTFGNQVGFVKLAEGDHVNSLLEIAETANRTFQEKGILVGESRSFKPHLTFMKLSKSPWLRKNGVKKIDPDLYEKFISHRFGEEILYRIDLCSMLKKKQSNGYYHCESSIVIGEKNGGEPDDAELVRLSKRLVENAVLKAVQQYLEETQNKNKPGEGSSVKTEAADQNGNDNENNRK

B1: V5-tagged USP4 (enzyme, UniProt Q13107 1-963, looked up)
chain: MAEGGGCRERPDAETQKSELGPLMRTTLQRGAQWYLIDSRWFKQWKKYVGFDSWDMYNVGEHNLFPGPIDNSGLFSDPESQTLKEHLIDELDYVLVPTEAWNKLLNWYGCVEGQQPIVRKVVEHGLFVKHCKVEVYLLELKLCENSDPTNVLSCHFSKADTIATIEKEMRKLFNIPAERETRLWNKYMSNTYEQLSKLDNTVQDAGLYQGQVLVIEPQNEDGTWPRQTLQSKSSTAPSRNFTTSPKSSASPYSSVSASLIANGDSTSTCGMHSSGVSRGGSGFSASYNCQEPPSSHIQPGLCGLGNLGNTCFMNSALQCLSNTAPLTDYFLKDEYEAEINRDNPLGMKGEIAEAYAELIKQMWSGRDAHVAPRMFKTQVGRFAPQFSGYQQQDSQELLAFLLDGLHEDLNRVKKKPYLELKDANGRPDAVVAKEAWENHRLRNDSVIVDTFHGLFKSTLVCPECAKVSVTFDPFCYLTLPLPLKKDRVMEVFLVPADPHCRPTQYRVTVPLMGAVSDLCEALSRLSGIAAENMVVADVYNHRFHKIFQMDEGLNHIMPRDDIFVYEVCSTSVDGSECVTLPVYFRERKSRPSSTSSASALYGQPLLLSVPKHKLTLESLYQAVCDRISRYVKQPLPDEFGSSPLEPGACNGSRNSCEGEDEEEMEHQEEGKEQLSETEGSGEDEPGNDPSETTQKKIKGQPCPKRLFTFSLVNSYGTADINSLAADGKLLKLNSRSTLAMDWDSETRRLYYDEQESEAYEKHVSMLQPQKKKKTTVALRDCIELFTTMETLGEHDPWYCPNCKKHQQATKKFDLWSLPKILVVHLKRFSYNRYWRDKLDTVVEFPIRGLNMSEFVCNLSARPYVYDLIAVSNHYGAMGVGHYTAYAKNKLNGKWYYFDDSNVSLASEDQIVTKAAYVLFYQRRDDEFYKTPSLSSSGSSDGGTRPSSSQQGFGDDEACSMDTN
For B1, the deubiquitinase activity (Ub-AMC fluorescent assay) in GFP immune complexes, fold over IgG controls, n = 3 [1] was 7.5 fold and the “deubiquitinase activity (Ub-AMC fluorescent assay) in GFP immune complexes, fold over IgG controls, n = 3” value [2] was 9.2 fold.
